Source: PMC7019770

The substances below were run against PRRSV SD16 virions (PRRSV-2 strain SD16) (assay: ELISA-based virus capture assay). Conditions: plates coated with PRA mutant proteins; detection with PRRSV-convalescent swine serum and HRP-labeled goat anti-swine IgG; parent: est. 1.3; read off a plot.

Q: For “PRA, C-terminal domain of MYH9 (recombinant, wild type) E1670A”, which response is on record?
A: Its response is 0.95 OD450.

Q: With “PRA, C-terminal domain of MYH9 (recombinant, wild type) E1679A” as the substance, how does the response read?
A: Its response is 0.99 OD450.

Q: With “PRA, C-terminal domain of MYH9 (recombinant, wild type) E1670A; K1673A; E1679A; I1683A” as the substance, how does the response read?
A: Its response is 1.1 OD450.

Q: With “PRA, C-terminal domain of MYH9 (recombinant, wild type) I1683A” as the substance, how does the response read?
A: The response was 0.88 OD450.

Q: “PRA, C-terminal domain of MYH9 (recombinant, wild type) K1673A” was tested. Which response did it give?
A: The response was 0.9 OD450.
